# Test results as given in patent US20220177590A1 (REMEGEN, published 2022).
# B1: anti-PD-L1 humanized antibody hAAG5D8 (antibody, human IgG1, kappa, V domains shown)
# VH: QVQLQESGPGLVKPSETLSLTCTVSGFSLSRYSVHWIRQPPGKGLEWLGMIWGVGTTDYNSALKSRLTISKDTSKNQFSLKLSSVTAADTAVYYCARNWGTADYFDYWGQGTTVTVSS
# VL: DIVLTQSPASLAVSPGQRATITCRASKSVHTSGYSYMHWYQQKPGQPPKLLIYLASNLESGVPARFSGSGSGTDFTLTINPVEANDTANYYCQHSGELPYTFGGGTKVEIKR
# notes: Humanized from murine mAAG5D8 on a human IgG1 framework; also called anti-PD-L1 antibody
# Tests used:
# [1] = target: T1, human PD-L1 (R&D company), immobilized on Ni-NTA probe (human, UniProt Q9NZQ7 19-239); experiment: BLI, PD-L1 immobilized on Ni-NTA probe, hAAG5D8 at 100, 50 and 25 nM in solution
# T1 construct: Bought protein; also called PD-L1 solution; not shown: His tag only implied by capture on the Ni-NTA probe
# Method: The affinity of hAAG5D8 to human PD-L1 was detected using biolayer interferometry (BLI). The wells in A-D columns 1, 3, and 5 of a black 96-well plate were added with a PBS solution as baseline 1, baseline 2 and a dissociation solution, respectively. The wells in column 2 were added with a PD-L1 solution (R&D company), in column 4 with a hAAG5D8 solution (The concentrations were as follows: 100 nM, 50 nM, 25 nM, and 0 nM), in column 10 with an imidazole solution, in column 11 with water, and in column 12 with a nickel sulfate solution. Ni-NTA probe (Fortebio) was employed in the experiment. First, the probe was dipped in A-D column 1 for 180 seconds to stabilize the baseline. The Ni-NTA probe was then dipped in A-D column 2 for 300 seconds to immobilize PD-L1 on the probe. The Ni-NTA probe was then dipped in A-D column 3 for 120 seconds to stabilize the baseline. The Ni-NTA probe was then dipped in A-D column 4 for 600 seconds to allow the binding of hAAG5D8 with a different concentration to the immobilized PD-L1 protein on the probe. The Ni-NTA probe was then dipped in A-D column 5 for 600 seconds to allow the antibody to dissociate spontaneously. Finally, the Ni-NTA probe was dipped in A-D columns 10, 11, and 12 successively to force the immobilized PD-L1 dissociating from the probe. […]
# PD-L1 (Fc Tag) [2] = target: T2, PD-L1 (Fc Tag) (human, UniProt Q9NZQ7 19-239, limits assumed); experiment: competition ELISA, PD-L1 (Fc Tag) coated, human PD-1 at 6 ug/mL as competitor, anti-human IgG-Fc-HRP detection
# T2 construct: also called human PD-L1; not shown: Fc tag
# Method: (§1) The ability of hAAG5D8 to compete with PD-1 to bind to PD-L1 was tested by ELISA. PD-L1 (Fc Tag) was diluted to 1 μg/mL with a coating buffer (6 mM Na₂CO₃, 14 mM NaHCO₃), and then added 100 μL to each well followed by overnight incubation at 4° C. The plate was then washed with PBST, and added with 250 μL of a blocking solution (3% BSA/PBST) to each well to block for 2 h at 25° C. Afterwards, the plate was washed with PBST and added with 50 μL of human PD-1 at a concentration of 6 μg/mL as well as 50 μL of a gradiently diluted hAAG5D8 solution (at a concentration of 8000 ng/mL, 2000 ng/mL, 500 ng/mL, 250 ng/mL, 125 ng/mL, 62.5 ng/mL, 31.25 ng/mL, 6.25 ng/mL, or 1.25 ng/mL) to each well followed by mixing well and incubation at 25° C. for 2 h. Next, the plate was washed with PBST and added with 100 μL of an enzyme-labeled secondary antibody (goat anti-human IgG-Fc-HRP diluted 1:5000) to each well, followed by incubation at 25° C. for 1 h. Finally, color development was performed and values were read at 450 nm. A four-parameter equation was used for curve fitting to calculate the EC₅₀ value.
# (§2) Results and conclusions: EC₅₀ value and the competitive binding curve of hAAG5D8 competitively binding to human PD-L1 are shown in Table 8 and FIG. 2, respectively.
# PD-L1 (Fc Tag) [3] = target: T2, PD-L1 (Fc Tag); experiment: competition ELISA, PD-L1 (Fc Tag) coated, human PD-1 at a fixed concentration as the competing ligand, hAAG5D8 titrated
# Method: as §1, §2
# T2 sequence (Q9NZQ7 19-239 limits assumed): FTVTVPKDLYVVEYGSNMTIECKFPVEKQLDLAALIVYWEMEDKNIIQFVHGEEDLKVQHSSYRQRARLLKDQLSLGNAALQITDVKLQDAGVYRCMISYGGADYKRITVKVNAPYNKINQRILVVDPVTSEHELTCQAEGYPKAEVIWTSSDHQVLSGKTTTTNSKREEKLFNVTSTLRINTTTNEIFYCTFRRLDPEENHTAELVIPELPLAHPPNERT
# T1 sequence (Q9NZQ7 19-239): as the sequence (Q9NZQ7 19-239 limits assumed) above
binder,measurement,setting,value
B1,Kd,[1],0.0762 nM
same,EC50,PD-L1 (Fc Tag) [2],0.716 nM
same,IC50 (read off the curve),PD-L1 (Fc Tag) [3],~0.1 µg/mL
